Here are results for 1 molecule from patent publication US20230277618A1 (BROAD INSTITUTE, published 2023).

The target in this test is T1, KIDINS220 (kinase D interacting substrate 220), endogenous in HEK-293T cells (human, UniProt Q9ULH0 1-1771).
T1 construct: whole, on cells; Endogenous protein of the 293 cells, detected by immunoblot after co-immunoprecipitation; also called ARMS; SINO
The test is described as follows: co-immunoprecipitation by V5 tag from HEK-293T cells, immunoblot for endogenous KIDINS220. For orientation: A western blot detects proteins with antibodies after separation by electrophoresis.

T1 sequence (Q9ULH0 whole entry): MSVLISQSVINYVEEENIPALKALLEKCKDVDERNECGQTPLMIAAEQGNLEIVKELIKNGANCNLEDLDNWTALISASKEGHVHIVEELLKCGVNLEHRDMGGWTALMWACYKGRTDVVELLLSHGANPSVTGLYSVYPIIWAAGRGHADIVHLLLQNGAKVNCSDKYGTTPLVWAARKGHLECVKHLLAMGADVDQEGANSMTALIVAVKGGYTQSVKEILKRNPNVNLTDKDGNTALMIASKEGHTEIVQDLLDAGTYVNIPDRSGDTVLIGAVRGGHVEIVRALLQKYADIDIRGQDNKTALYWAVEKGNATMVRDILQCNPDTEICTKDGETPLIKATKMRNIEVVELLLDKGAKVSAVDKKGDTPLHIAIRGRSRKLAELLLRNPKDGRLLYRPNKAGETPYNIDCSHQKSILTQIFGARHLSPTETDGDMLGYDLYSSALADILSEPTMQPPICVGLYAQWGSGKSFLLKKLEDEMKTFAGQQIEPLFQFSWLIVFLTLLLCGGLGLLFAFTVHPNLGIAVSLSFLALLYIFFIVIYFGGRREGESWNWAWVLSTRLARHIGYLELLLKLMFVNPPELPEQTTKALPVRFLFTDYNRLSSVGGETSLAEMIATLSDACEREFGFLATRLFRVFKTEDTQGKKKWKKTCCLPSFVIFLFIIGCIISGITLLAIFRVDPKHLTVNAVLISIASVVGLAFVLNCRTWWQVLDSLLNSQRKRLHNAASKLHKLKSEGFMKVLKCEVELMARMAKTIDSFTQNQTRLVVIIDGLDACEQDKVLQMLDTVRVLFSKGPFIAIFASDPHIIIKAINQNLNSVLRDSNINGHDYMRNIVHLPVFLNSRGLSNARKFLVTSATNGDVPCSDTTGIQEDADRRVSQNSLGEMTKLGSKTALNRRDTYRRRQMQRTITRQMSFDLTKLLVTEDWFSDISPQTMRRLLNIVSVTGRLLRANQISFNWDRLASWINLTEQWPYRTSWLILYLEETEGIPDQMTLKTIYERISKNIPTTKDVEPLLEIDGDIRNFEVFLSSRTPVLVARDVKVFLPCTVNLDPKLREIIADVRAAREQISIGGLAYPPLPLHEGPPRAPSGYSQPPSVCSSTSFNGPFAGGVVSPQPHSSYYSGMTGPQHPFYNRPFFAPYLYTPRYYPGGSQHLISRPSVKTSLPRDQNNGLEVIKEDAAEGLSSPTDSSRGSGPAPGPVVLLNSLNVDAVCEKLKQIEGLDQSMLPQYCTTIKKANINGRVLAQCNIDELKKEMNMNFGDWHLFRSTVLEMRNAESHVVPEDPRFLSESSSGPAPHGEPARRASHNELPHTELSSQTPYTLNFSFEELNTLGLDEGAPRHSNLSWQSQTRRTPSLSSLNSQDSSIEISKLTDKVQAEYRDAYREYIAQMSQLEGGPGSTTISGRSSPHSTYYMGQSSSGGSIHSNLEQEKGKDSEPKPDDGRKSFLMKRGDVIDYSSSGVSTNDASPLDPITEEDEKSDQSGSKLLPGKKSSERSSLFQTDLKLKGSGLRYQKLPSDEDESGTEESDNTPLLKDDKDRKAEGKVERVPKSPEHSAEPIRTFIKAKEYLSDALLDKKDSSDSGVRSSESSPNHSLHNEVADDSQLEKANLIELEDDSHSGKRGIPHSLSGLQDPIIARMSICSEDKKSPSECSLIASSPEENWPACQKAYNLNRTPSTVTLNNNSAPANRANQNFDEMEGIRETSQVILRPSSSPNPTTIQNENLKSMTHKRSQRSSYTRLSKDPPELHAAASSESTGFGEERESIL

B1: XPR1 SPX domain only construct with C-terminal V5 tag (other, human, UniProt Q9UBH6 1-224, looked up, not shown: small tags and cut ends)
chain: MKFAEHLSAHITPEWRKQYIQYEAFKDMLYSAQDQAPSVEVTDEDTVKRYFAKFEEKFFQTCEKELAKINTFYSEKLAEAQRRFATLQNELQSSLDAQKESTGVTTLRQRRKPVFHLSHEERVQHRNIKDLKLAFSEFYLSLILLQNYQNLNFTGFRKILKKHDKILETSRGADWRVAHVEVAPFYTCKKINQLISETEAVVTNELEDGDRQKAMKRLRVPPLG
notes: domain: SPX domain; also called SPX domain only constructs; N-terminal SPX domain of XPR1
On to B1, for which the binding result is listed as “no binding”.
